Source: patent US6448059

How the values were obtained:
[1] = biological target: T1, cysteine-tRNA synthetase (CysRS) (Haemophilus influenzae) (UniProt P43816); settings: kcat/Km of aminoacylation, 37 C; relative 1.4
T1 sequence: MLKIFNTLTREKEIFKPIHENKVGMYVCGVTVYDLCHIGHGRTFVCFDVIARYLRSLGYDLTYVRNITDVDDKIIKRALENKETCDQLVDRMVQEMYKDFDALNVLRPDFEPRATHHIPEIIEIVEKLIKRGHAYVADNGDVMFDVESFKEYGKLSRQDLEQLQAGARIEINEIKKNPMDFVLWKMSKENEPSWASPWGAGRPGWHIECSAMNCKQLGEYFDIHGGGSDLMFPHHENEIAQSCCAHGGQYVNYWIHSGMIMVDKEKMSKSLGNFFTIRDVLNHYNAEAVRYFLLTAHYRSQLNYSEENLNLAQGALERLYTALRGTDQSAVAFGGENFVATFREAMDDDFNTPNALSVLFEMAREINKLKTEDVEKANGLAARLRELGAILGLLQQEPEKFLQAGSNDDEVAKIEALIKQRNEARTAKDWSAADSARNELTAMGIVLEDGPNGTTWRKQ

[2] = biological target: T2, cysteine-tRNA synthetase (CysRS) (Escherichia coli) (UniProt P21888); settings: kcat/Km of aminoacylation, 37 C; relative 1.6
T2 sequence: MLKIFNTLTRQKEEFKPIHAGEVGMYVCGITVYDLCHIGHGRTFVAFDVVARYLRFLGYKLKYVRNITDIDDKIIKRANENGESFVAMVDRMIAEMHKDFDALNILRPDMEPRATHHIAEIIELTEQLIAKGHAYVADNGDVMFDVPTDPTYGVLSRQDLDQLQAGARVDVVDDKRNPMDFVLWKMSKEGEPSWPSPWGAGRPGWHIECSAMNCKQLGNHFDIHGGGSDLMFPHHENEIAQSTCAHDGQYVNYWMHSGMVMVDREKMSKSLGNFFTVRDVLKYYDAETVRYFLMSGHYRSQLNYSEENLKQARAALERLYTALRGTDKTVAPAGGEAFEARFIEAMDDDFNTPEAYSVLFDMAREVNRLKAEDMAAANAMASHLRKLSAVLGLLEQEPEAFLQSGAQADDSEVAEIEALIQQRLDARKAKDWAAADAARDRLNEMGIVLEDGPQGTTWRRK

B. subtilis tRNACys
activity [1]: 250000 M⁻¹ s⁻¹ | activity [2]: 340000 M⁻¹ s⁻¹
